T1: FGF14 (1b isoform), wild type, fused to split firefly luciferase fragments (UniProt Q92915)
T1 sequence: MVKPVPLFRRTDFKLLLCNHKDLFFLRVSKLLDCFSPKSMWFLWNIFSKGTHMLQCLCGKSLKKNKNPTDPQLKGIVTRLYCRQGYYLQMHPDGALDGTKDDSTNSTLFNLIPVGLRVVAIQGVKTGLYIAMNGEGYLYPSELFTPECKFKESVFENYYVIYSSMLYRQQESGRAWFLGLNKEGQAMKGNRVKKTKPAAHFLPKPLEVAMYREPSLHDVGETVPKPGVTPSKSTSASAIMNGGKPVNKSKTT


Assays:
Experiment in all cases: split reporter
[1] = biological target: T1, FGF14 (1b isoform), wild type, fused to split firefly luciferase fragments
[2] = biological target: FGF14^Y153N/V155N (1b isoform) fused to split firefly luciferase fragments
[3] = biological target: T1, FGF14 (1b isoform), wild type, fused to split firefly luciferase fragments; remark: listed apart in the source
[4] = biological target: FGF14^Y153N/V155N (1b isoform) fused to split firefly luciferase fragments; conditions: split reporter (BiFC, NanoBiT)

| Molecule | % maximal luminescence against the FGF14:FGF14 dimer [1] [%] | % maximal luminescence against the FGF14:FGF14 dimer [2] [%] | % maximal luminescence of CLuc-FGF14:FGF14-NLuc left with 10 uM peptide [3] [%] | % maximal luminescence of the FGF14^Y153N/V155N:FGF14 heterodimer left with FLPK [4] [%] |
| --- | --- | --- | --- | --- |
| FGF14^Y153N/V155N (1b isoform) fused to split firefly luciferase fragments (natural protein) | 109 | 136 | – | – |
| Ac-FLPK-NH2 [Ac-FLPK-NH2] | – | – | 75 | 90.8 ± 5.1 |

— paper PMC4809639
